# Assay results taken from PMC9482650, “Quantitative fragmentomics allow affinity mapping of interactomes” (Nature Communications, 2022).
# T1: APBA2_1, Q99767
# T1 sequence (Q99767 563-664, limits assumed, looked up): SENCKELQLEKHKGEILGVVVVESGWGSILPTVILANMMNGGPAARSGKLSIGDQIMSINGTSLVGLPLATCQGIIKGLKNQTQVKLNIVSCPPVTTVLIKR
# T2: CARD11, Q9BXL7
# T2 sequence (Q9BXL7 662-765, limits assumed, looked up): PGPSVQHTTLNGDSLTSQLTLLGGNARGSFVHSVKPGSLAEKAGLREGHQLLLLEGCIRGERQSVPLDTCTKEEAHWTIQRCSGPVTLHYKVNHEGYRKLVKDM
# T3: DLG3_1, Q92796
# T3 sequence (Q92796 125-227, limits assumed, looked up): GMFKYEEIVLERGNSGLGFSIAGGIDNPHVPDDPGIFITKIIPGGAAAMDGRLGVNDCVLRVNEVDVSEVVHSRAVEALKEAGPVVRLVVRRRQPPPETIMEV
# T4: FRMPD1, Q5SYB0
# T4 sequence (Q5SYB0 52-145, limits assumed, looked up): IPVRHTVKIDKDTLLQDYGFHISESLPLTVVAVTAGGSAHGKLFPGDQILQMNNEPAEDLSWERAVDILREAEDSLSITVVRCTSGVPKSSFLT
# T5: HTRA4, P83105
# T5 sequence (P83105 378-476, limits assumed, looked up): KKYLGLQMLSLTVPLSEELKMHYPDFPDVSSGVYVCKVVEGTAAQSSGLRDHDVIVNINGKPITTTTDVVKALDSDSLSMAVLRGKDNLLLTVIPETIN
# T6: LIN7A, O14910
# T6 sequence (O14910 103-200, limits assumed, looked up): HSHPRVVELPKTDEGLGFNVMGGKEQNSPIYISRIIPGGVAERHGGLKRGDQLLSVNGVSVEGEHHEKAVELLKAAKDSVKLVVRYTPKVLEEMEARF
# T7: LNX2_3, Q8N448
# T7 sequence (Q8N448 463-564, limits assumed, looked up): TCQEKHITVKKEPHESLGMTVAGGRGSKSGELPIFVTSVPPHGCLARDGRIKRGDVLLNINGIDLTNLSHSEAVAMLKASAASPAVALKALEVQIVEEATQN
# T8: MPP6, Q9NZW5
# T8 sequence (Q9NZW5 125-219, limits assumed, looked up): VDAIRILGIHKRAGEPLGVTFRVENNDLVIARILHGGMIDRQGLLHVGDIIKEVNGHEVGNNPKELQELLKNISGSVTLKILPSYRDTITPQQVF
# T9: NHERF3_4, Q5T2W1
# T9 sequence (Q5T2W1 373-468, limits assumed, looked up): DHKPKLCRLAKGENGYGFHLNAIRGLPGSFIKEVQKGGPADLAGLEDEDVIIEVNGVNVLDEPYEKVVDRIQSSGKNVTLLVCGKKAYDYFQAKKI
# T10: PARD3B_1, Q8TEW8
# T10 sequence (Q8TEW8 196-299, limits assumed, looked up): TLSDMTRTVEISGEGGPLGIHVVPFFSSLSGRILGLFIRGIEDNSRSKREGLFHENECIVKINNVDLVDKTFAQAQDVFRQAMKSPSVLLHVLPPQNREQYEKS
# T11: PDZD2_2, O15018
# T11 sequence (O15018 329-429, limits assumed, looked up): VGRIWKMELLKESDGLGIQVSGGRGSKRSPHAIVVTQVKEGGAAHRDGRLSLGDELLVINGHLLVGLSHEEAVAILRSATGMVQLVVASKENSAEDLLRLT
# T12: SNTB1, Q13884
# T12 sequence (Q13884 107-205, limits assumed, looked up): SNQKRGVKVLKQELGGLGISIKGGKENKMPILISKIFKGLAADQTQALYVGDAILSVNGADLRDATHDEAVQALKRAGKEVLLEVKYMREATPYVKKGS
# Legend:
# Experiment in all cases: holdup assay
# Design in all cases: key: below the threshold = too weak to quantify, mostly under pKd 3.1 to 4
# [1] = molecular target: T1, APBA2_1, Q99767
# [2] = molecular target: T2, CARD11, Q9BXL7
# [3] = molecular target: DLG1_1, Q12959
# [4] = molecular target: DLG1_3, Q12959
# [5] = molecular target: T3, DLG3_1, Q92796
# [6] = molecular target: DLG4_2, P78352
# [7] = molecular target: T4, FRMPD1, Q5SYB0
# [8] = molecular target: FRMPD2_1, Q68DX3
# [9] = molecular target: FRMPD2_3, Q68DX3
# [10] = molecular target: GRASP, Q7Z6J2
# [11] = molecular target: HTRA1, Q92743
# [12] = molecular target: T5, HTRA4, P83105
# [13] = molecular target: Inadl_10, Q8NI35
# [14] = molecular target: Inadl_5, Q8NI35
# [15] = molecular target: LDB3, O75112
# [16] = molecular target: T6, LIN7A, O14910
# [17] = molecular target: T7, LNX2_3, Q8N448
# [18] = molecular target: T8, MPP6, Q9NZW5
# [19] = molecular target: T9, NHERF3_4, Q5T2W1
# [20] = molecular target: NOS1, P29475
# [21] = molecular target: T10, PARD3B_1, Q8TEW8
# [22] = molecular target: PARD3_3, Q8TEW0
# [23] = molecular target: T11, PDZD2_2, O15018
# [24] = molecular target: SCRIB_1, Q14160
# [25] = molecular target: T12, SNTB1, Q13884
# [26] = molecular target: TJP1_3, Q07157
# [27] = plain residues with an end cap or a label only (N-terminal biotin on a linker: ttds)
# [28] = plain residues with an end cap or a label only (N-terminal biotin on a linker: ado-ado)
# [29] = plain residues with an end cap or a label only (N-terminal biotin on a linker: ado-ado, ttds)
# [30] = plain residues with an end cap or a label only (N-terminal biotin on a linker: ahx)
# Sequence of SCRIB_1, Q14160 (Q14160 718-814): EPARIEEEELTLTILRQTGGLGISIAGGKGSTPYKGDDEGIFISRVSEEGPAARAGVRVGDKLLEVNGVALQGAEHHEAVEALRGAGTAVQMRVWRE
# Sequence of GRASP, Q7Z6J2 (Q7Z6J2 96-193): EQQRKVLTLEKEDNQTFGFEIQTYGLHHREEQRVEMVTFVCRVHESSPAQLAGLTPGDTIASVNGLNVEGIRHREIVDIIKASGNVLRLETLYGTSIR
# Sequence of PARD3_3, Q8TEW0 (Q8TEW0 582-685): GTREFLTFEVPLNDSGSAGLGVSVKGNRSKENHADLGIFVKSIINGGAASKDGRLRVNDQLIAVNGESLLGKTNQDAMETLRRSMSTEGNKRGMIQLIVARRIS
# Sequence of Inadl_5, Q8NI35 (Q8NI35 673-780): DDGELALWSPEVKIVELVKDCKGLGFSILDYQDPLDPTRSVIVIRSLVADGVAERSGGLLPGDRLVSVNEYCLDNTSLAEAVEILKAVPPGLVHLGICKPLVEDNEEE
# Sequence of NOS1, P29475 (P29475 9-101): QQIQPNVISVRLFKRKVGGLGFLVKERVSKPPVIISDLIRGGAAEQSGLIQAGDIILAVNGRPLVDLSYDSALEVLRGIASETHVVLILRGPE
# Sequence of FRMPD2_3, Q68DX3 (Q68DX3 1073-1166): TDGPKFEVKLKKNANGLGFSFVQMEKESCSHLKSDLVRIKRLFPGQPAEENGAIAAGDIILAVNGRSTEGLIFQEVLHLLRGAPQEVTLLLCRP
# Sequence of LDB3, O75112 (O75112 1-94): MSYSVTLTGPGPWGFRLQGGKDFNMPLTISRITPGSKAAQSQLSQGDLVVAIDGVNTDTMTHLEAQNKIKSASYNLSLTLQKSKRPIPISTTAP
# Sequence of Inadl_10, Q8NI35 (Q8NI35 1673-1763): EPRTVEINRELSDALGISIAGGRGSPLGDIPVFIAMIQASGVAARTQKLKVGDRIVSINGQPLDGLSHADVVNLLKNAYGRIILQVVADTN
# Sequence of TJP1_3, Q07157 (Q07157 416-512): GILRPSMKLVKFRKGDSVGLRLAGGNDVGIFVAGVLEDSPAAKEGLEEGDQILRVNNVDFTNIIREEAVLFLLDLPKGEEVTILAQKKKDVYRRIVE
# Sequence of FRMPD2_1, Q68DX3 (Q68DX3 770-861): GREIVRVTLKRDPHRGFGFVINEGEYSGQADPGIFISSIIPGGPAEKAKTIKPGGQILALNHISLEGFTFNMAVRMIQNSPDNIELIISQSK
# Sequence of DLG4_2, P78352 (P78352 155-259): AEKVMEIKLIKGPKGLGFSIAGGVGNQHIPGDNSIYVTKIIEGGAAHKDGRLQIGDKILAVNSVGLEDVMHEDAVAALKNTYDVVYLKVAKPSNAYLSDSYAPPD
# Sequence of HTRA1, Q92743 (Q92743 360-477): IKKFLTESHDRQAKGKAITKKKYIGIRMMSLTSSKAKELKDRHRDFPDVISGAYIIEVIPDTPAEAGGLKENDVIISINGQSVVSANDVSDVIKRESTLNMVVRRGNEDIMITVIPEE
binder,measurement,setting,value
"PPRQRSETQV [HPV82-E6, Q9IR59]",pKd,[1]; [27],below the threshold
same,pKd,[2]; [27],below the threshold
same,pKd,[3]; [27],4.75
same,pKd,[4]; [27],3.99
same,pKd,[5]; [27],4.12
same,pKd,[6]; [27],4.9
same,pKd,[7]; [27],below the threshold
same,pKd,[8]; [27],3.5
same,pKd,[9]; [27],below the threshold
same,pKd,[10]; [27],below the threshold
same,pKd,[11]; [27],below the threshold
same,pKd,[12]; [27],below the threshold
same,pKd,[13]; [27],below the threshold
same,pKd,[14]; [27],3.31
same,pKd,[15]; [27],below the threshold
same,pKd,[16]; [27],below the threshold
same,pKd,[17]; [27],below the threshold
same,pKd,[18]; [27],below the threshold
same,pKd,[19]; [27],below the threshold
same,pKd,[20]; [27],3.88
same,pKd,[21]; [27],below the threshold
same,pKd,[22]; [27],below the threshold
same,pKd,[23]; [27],below the threshold
same,pKd,[24]; [27],4.12
same,pKd,[25]; [27],4.05
same,pKd,[26]; [27],below the threshold
"SSIDLWETAL [SLC15A5, A6NIM6]",pKd,[1]; [27],below the threshold
same,pKd,[2]; [27],below the threshold
same,pKd,[3]; [27],4.43
same,pKd,[4]; [27],4.22
same,pKd,[5]; [27],3.87
same,pKd,[6]; [27],4.22
same,pKd,[7]; [27],below the threshold
same,pKd,[8]; [27],below the threshold
same,pKd,[9]; [27],below the threshold
same,pKd,[10]; [27],5.28
same,pKd,[11]; [27],4.25
same,pKd,[12]; [27],below the threshold
same,pKd,[13]; [27],4.17
same,pKd,[14]; [27],below the threshold
same,pKd,[15]; [27],3.92
same,pKd,[16]; [27],4.27
same,pKd,[17]; [27],below the threshold
same,pKd,[18]; [27],below the threshold
same,pKd,[19]; [27],4.94
same,pKd,[20]; [27],4.36
same,pKd,[21]; [27],4.49
same,pKd,[22]; [27],4.44
same,pKd,[23]; [27],4.11
same,pKd,[24]; [27],5.76
same,pKd,[25]; [27],5.41
same,pKd,[26]; [27],below the threshold
"ELKAEDEVQI [DCHS2, Q6V1P9]",pKd,[1]; [28],below the threshold
same,pKd,[2]; [28],below the threshold
same,pKd,[3]; [28],below the threshold
same,pKd,[4]; [28],below the threshold
same,pKd,[5]; [28],below the threshold
same,pKd,[6]; [28],below the threshold
same,pKd,[7]; [28],below the threshold
same,pKd,[8]; [28],below the threshold
same,pKd,[9]; [28],below the threshold
same,pKd,[10]; [28],below the threshold
same,pKd,[11]; [28],4.25
same,pKd,[12]; [28],below the threshold
same,pKd,[13]; [28],below the threshold
same,pKd,[14]; [28],below the threshold
same,pKd,[15]; [28],below the threshold
same,pKd,[16]; [28],below the threshold
same,pKd,[17]; [28],below the threshold
same,pKd,[18]; [28],below the threshold
same,pKd,[19]; [28],below the threshold
same,pKd,[20]; [28],3.74
same,pKd,[21]; [28],3.89
same,pKd,[22]; [28],4.74
same,pKd,[23]; [28],below the threshold
same,pKd,[24]; [28],below the threshold
same,pKd,[25]; [28],below the threshold
same,pKd,[26]; [28],below the threshold
"SNAKAVETDV [KCNA4, P22459]",pKd,[1]; [29],below the threshold
same,pKd,[2]; [29],3.55
same,pKd,[3]; [29],4.72
same,pKd,[4]; [29],below the threshold
same,pKd,[5]; [29],4.25
same,pKd,[6]; [29],5.19
same,pKd,[7]; [29],below the threshold
same,pKd,[8]; [29],below the threshold
same,pKd,[9]; [29],below the threshold
same,pKd,[10]; [29],below the threshold
same,pKd,[11]; [29],below the threshold
same,pKd,[12]; [29],below the threshold
same,pKd,[13]; [29],below the threshold
same,pKd,[14]; [29],below the threshold
same,pKd,[15]; [29],below the threshold
same,pKd,[16]; [29],below the threshold
same,pKd,[17]; [29],below the threshold
same,pKd,[18]; [29],below the threshold
same,pKd,[19]; [29],below the threshold
same,pKd,[20]; [29],3.48
same,pKd,[21]; [29],below the threshold
same,pKd,[22]; [29],below the threshold
same,pKd,[23]; [29],4.32
same,pKd,[24]; [29],below the threshold
same,pKd,[25]; [29],4.71
same,pKd,[26]; [29],below the threshold
"SKKNELFSNL [NHERF1, O14745]",pKd,[1]; [30],below the threshold
same,pKd,[2]; [30],below the threshold
same,pKd,[3]; [30],below the threshold
same,pKd,[4]; [30],below the threshold
same,pKd,[5]; [30],below the threshold
same,pKd,[6]; [30],below the threshold
same,pKd,[7]; [30],below the threshold
same,pKd,[8]; [30],below the threshold
same,pKd,[9]; [30],below the threshold
same,pKd,[10]; [30],below the threshold
same,pKd,[11]; [30],below the threshold
same,pKd,[12]; [30],below the threshold
same,pKd,[13]; [30],below the threshold
same,pKd,[14]; [30],below the threshold
same,pKd,[15]; [30],below the threshold
same,pKd,[16]; [30],below the threshold
same,pKd,[17]; [30],below the threshold
same,pKd,[18]; [30],below the threshold
same,pKd,[19]; [30],below the threshold
same,pKd,[20]; [30],below the threshold
same,pKd,[21]; [30],below the threshold
same,pKd,[22]; [30],below the threshold
same,pKd,[23]; [30],4.38
same,pKd,[24]; [30],below the threshold
same,pKd,[25]; [30],below the threshold
same,pKd,[26]; [30],below the threshold
